Laboratory results as given in PMC8835810.

Target: E117K mutant of rabbit muscle pyruvate kinase (rabbit)
Experiment: crystal structure; E117K mutant at 7 mg/mL in 50 mM Tris pH 7.0 with 1.0 mM ATP, 1.0 mM MgCl2, 0.2 mM oxalate; hanging drop; 0.2 M magnesium acetate, 0.1 M sodium cacodylate pH 6.5, 18% w/v PEG 8000; space group P212121, four copies in the asymmetric unit

Substance: E117K mutant of rabbit muscle pyruvate kinase (enzyme)
- stoichiometry N: 4
